Key:
[1] = target: phosphorylated adapter protein p52ShcA (UniProt P29353); assay: multiplate ELISA, comparison of Kd values
[2] = target: phosphorylated adapter protein p52ShcA (UniProt P29353); assay: multiplate ELISA, P-p52ShcA coated, GST-P-Jak3 titrated, anti-GST detection
phosphorylated Villin [3] = target: T1, phosphorylated Villin (UniProt P09327); assay: multiplate ELISA, P-Villin coated, GST-P-Jak3 titrated, anti-GST detection, GST-alone control subtracted
T1 sequence (tyrosine phosphorylated by expression in E. coli TKX1; sites not stated, looked up): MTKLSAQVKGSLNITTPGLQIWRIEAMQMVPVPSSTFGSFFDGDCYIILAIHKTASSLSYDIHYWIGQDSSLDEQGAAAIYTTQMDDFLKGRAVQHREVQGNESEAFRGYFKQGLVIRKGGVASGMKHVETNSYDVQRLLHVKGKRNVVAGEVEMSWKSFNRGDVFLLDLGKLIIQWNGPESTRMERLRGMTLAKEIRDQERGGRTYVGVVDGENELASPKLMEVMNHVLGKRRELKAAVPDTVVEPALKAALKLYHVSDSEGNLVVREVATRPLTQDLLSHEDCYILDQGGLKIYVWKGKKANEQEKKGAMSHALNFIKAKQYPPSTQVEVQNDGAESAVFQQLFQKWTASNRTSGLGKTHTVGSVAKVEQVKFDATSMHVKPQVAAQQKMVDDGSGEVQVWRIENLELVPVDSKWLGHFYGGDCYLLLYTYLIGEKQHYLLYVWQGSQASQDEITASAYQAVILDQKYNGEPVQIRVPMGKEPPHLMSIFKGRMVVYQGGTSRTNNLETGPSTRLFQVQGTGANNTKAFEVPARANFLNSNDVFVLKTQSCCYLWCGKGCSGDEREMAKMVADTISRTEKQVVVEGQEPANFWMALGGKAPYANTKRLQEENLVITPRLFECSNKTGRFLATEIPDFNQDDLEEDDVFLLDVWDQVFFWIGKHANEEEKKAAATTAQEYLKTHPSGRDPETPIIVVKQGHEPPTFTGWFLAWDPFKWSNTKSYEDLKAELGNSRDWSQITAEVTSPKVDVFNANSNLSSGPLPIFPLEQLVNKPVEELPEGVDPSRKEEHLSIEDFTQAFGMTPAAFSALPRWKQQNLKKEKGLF

phosphorylated Villin [4] = target: T1, phosphorylated Villin; assay: multiplate ELISA, P-Villin coated, GST-Jak3-G257 titrated, anti-GST detection

## phosphorylated GST-WT-Jak3 fusion protein (enzyme)
[1]
  fold weaker than P-Jak3 binding with P-Villin: 10 fold
[2]
  Kd: 220 nM
Phosphorylated Villin [3]
  Kd: 23 nM

## GST-truncated Jak3 fusion protein lacking the JH1, JH2, JH3 and JH4 domains
Phosphorylated Villin [4]
  Kd: 40 nM
